Numbering of substitutions follows the chain as printed. Blank lines part the entries; values can stand above or below the binder they belong to.
Molecular target: human mesothelin polypeptide (human) (UniProt Q13421)
Experiment: ELISA and SPR (Blitz) on a human mesothelin polypeptide

EC50: 944 nM
B2: Clone #9 VH domain (protein)
VH: EVQLVESGGGVVQPGRSLRLSCAASGFTFSSYAMHWVRQAPGKGLEWVSGISYNGDHTYYADSVKGRSTVSRDNAKNTLYLQMDSLRPEDTAMYYCTRNYFFDYWGQGTLVTVSS

EC50: 1.3 nM
B3: Clone #12 VH domain (protein)
VH: EVQLVETGGDLAQPGESLRLSCVASGFTFSSSWMTWIRQAPGKGLEWVSSLSGRSEKTFYADSVKGRFTVSRDNAKNTLYLQMDSLRPEDTATYYCASGWALVWGQGTLVTVSS

EC50: 98 nM
B5: Clone #11 VH domain (protein)
VH: EVQLVESGGGVVQPGRSLRLSCAASGFTFSSYAMHWVRQAPGKGLEWVSGITRSGGATFYAGSVKGRFTISRDDSTNTLYLQMNSLRAEDTAVYYCSRDPRRVDYWGQGTLVTVSS

EC50: 107 nM
B10: Clone #10 VH domain (protein)
VH: EVQLVESGGGVVQPGRSLRLSCAASGFTFSSYAMHWVRQAPGKGLEWIGSIRHDGNTYYNPSLKSRVTVSRDNAKNTLYLQMDSLRAEDTAMYYCAKYGCSSISCSFDYWGQGTLVTVSS

EC50: 6.5 nM
B12: Clone #8 VH domain (protein)
VH: B10 VH with T68S

The remaining lines, values behind:

B1: Clone #1 VH domain (protein)
VH: EVQLVESGGGVVQPGRSLRLSCAASGFTFSSYAMHWVRQAPGKALEWIGSISYSGSTYYNPSLKSRVTVSRDNAKNTLYLQMDSLRAEDTAMYYCAKYYCSGGTCYYFDYWGQGTLVTVSS
EC50: 1000 nM

B4: Clone #2 VH domain (protein)
VH: EVQLVESGGGVVQPGRSLRLSCAASGFTFSSYAMHWVRQAPGKGLEWIGYIYTSGSTNYNPSLKSRVTISRDDSTNTLYLQMNSLRAEDTATYYCARTPRGRDSSGYYQSPHAFDIWGQGTLVTVSS
EC50: 1.6 nM

B6: Clone #5 VH domain (protein)
VH: EVQLVESGGGVVQPGRSLRLSCAASGLTFSSYAMHWVRQAPGKGLEWIGTIRYDGNTYYNPSLKSLVTISRDDSTNTLYLQMNSLRAEDTATYYCARRRYYDSSGYRGAAFDIWGQGTLVTVSS
EC50: 298 nM

B7: Clone #4 VH domain (protein)
VH: EVQLVESGGGVVQPGRSLRLSCAASGFTFSSYAMHWVRQAPGKGLEWVSSISGNSLYKYYADSVKGRFTISRDDSTNTLYLQMNSLRAEDTATYYCTRHWAVGNWGQGTLVTVSS
EC50: 1.7 nM

B8: Clone #6 VH domain (protein)
VH: QVQLQQWGAGLLKPSETLSLTCAVYGGSFSGYYWSWIRQPPGKGLEWIGEINHSGSTNYNPSLKSRVTISVDTSKNQFSLKLSSVTAADTATYYCARSYRTVTYYKAYFQHWGQGTLVTVSS
EC50: 1000 nM

B9: Clone #3 VH domain (protein)
VH: KVQLQQWGAGLLKPSETLSLTCAVYGGSFSGYYWSWIRQPPGKGLEWIGEINHSGSTNYNPSLKSRVTISVDTSKNQFSLKLSSVTAADTALYYCARTYRPHSYYYYGMDVWGQGTTVTVSS
EC50: 38 nM

B11: Clone #7 VH domain (protein)
VH: B10 VH with S50T, H53Y, R66L, V69I, N73D, A74S, K75T, D83N, M92L, I103T
EC50: 16.4 nM
